Test results: patent publication US20120201809A1 (COVX TECHNOLOGIES IRELAND, published 2012)
Like-named read-outs stand apart in the source and are kept apart here.

Tests used:
[1] = target: T1, human IGF1R on cells (mouse 3T3 cells engineered to express human IGF1R); human colon adenocarcinoma Colo205 … (human, UniProt P08069 31-1367); assay: cell-based or functional assay
[2] = target: T1, human IGF1R on cells (mouse 3T3 cells …); assay: cell-based or functional assay; remark: listed apart in the source

B1: 2.12.1.fx antibody (anti-IGF1R antibody) (antibody, human IgG2, kappa, V domains shown)
VH: QVQLVESGGGLVKPGGSLRLSCAASGFTFSDYYMSWIRQAPGKGLEWVSYISSSGSTRDYADSVKGRFTISRDNAKNSLYLQMNSLRAEDTAVYYCVRDGVETTFYYYYYGMDVWGQGTTVTVSS
VL: DIQMTQSPSSLSASVGDRVTITCRASQDIRRDLGWYQQKPGKAPKRLIYAASRLQSGVPSRFSGSGSGTEFTLTISSLQPEDFATYYCLQHNNYPRTFGQGTKLVIKR
B1 was tested, and the “% IGF1R downregulated” value [1] was 48% and the “% IGF1R downregulated” value [2] was 36%.
